Source: paper PMC3800664

How the values were obtained:
[1] = molecular target: GST-TKJMΔ (intracellular domain of the EGFR lacking the first 13 amino acids of the juxtamembrane region, fused to glutathione S-transferase); experiment: cross-linking; total protein extracts of E. coli treated with BS3 or glutaraldehyde, western blot with anti-GST antibody; control without cross-linking agent
[2] = molecular target: glutathione S-transferase (GST); experiment: as above

Chain of glutathione S-transferase (GST) (P08515 2-218): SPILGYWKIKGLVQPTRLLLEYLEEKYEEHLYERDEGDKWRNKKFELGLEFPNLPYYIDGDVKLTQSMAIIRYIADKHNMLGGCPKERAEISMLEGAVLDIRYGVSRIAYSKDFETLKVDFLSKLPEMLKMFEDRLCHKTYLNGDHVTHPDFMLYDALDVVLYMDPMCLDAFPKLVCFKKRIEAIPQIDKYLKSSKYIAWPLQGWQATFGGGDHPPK

stoichiometry N [1] | stoichiometry N [2] | Substance
2 |  | GST-TKJMΔ (intracellular domain of the EGFR lacking the first 13 amino acids of the juxtamembrane region, fused to glutathione S-transferase) (domain or fragment)
 | 2 | glutathione S-transferase (GST) (natural protein)
